Data on 1 molecule can be found in US9364516B2, “Treatment of fibrosis-related disorders using fibronectin binding proteins and polypeptides” (priority 2010, dated 2016).

For series [1], the system named is left carotid artery of FVB mice. The series can be described thus: Carotid ligation model, quantitative immunohistochemistry. In kind it is in vivo, mouse. The protocol:
Sections selected from the first millimeter of the carotid artery in each group were used for immunohistochemistry (IHC). Endogenous peroxidase activity was blocked with 3% H2O2, followed by incubation with Dako serum-free blocking solution (Dako; Glostrup, Denmark). The primary antibodies used were: polyclonal anti-fibronectin (Chemicon/Millipore, Billerica, Mass.), polyclonal anti-collagen type I (LF-67; a gift from Dr. Fisher, NIH, Bethesda, Md.), monoclonal anti-proliferating cell nuclear antigen (PCNA) (Sigma, St. Louis, Mo.), polyclonal anti-smooth muscle myosin heavy chain (SMMHC) (Biomedical Technologies Inc., Stoughton, Mass.), monoclonal smooth muscle-actin (SM-actin) (Dako), anti-leukocyte common antigen, CD45 (BD Pharmingen, San Jose, Calif.), monoclonal anti-intercellular adhesion molecule-1 (ICAM-1) (BD Pharmingen), and polyclonal anti-vascular cell adhesion molecule-1 (VCAM-1) (Santa Cruz Biotechnology, Santa Cruz, Calif.). Antigen retrieval for anti-fibronectin and anti-collagen type I antibodies was performed by incubating sections with proteinase K in 0.05M Tris-HCL buffer. Antigen retrieval for CD 45 antibody was performed by incubating sections with 10 mM citrate buffer (pH=6) at 120° C. Sections were then incubated with appropriate biotinylated secondary antibodies followed by avidin-biotin immunoperoxidase system (Vector Laboratories, Burlingame, Calif.). Liquid DAB Substrate Chromogen system (Dako) or Vector Red (Vector) was used for detection. PCNA, CD45, ICAM-1, and VCAM-1-immunostained sections were counterstained with hematoxylin.
Quantitative IHC analysis was performed using Image-Pro Plus software. Data from 3-5 mice were averaged, and the average values ±s.e.m. determined. For fibronectin, collagen type I, SMMHC, and SMα-actin, color digital images were captured using a 40× objective and transformed into gray scale. Sixteen fields of view of equal size per section in the media or adventitia were randomly chosen, and the mean of the optical densities from the sixteen fields of view was determined. Three sections were analyzed per animal. For quantitative comparison of leukocyte infiltration and cell adhesion molecule expression, images were acquired using a 60× objective. The CD45, ICAM-1, and VCAM-1-positive areas were obtained using an automated programmed segmentation procedure in ImagePro. The intima plus media or adventitial regions were traced manually. The percent of the positively stained area to the total traced area was determined. For evaluation of proliferating cells, the percent of PCNA (+) cells to total cells was determined by counting cell numbers in PCNA-stained sections that had been counterstained with hematoxylin. The percent positive cells is reported as the proliferation index. To determine the SMC density, sections were stained with hematoxylin, and cells present in the media were counted. The data is expressed as number of cells/μm^2.
Blood flow in the left carotid artery of 10-week-old FVB/NJ (FVB) mice was reduced by ligating the external and internal carotid arterial branches as described (Korshunov et al., “Flow-Induced Vascular Remodeling in the Mouse: A Model for Carotid Intima-Media Thickening,” Arterioscler. Thromb. Vasc. Biol. 23:2185-2191 (2003), which is hereby incorporated by reference in its entirety). Mice were anesthetized with an intraperitoneal injection of ketamine (80 mg/kg) and xylazine (5 mg/kg) as described in the above-cited referenced. The left common carotid artery was dissected free of the surrounding connective tissue and 50 μL of F-127 pluronic gel (BASF) containing 20 μmol/L pUR4 or III-11C was applied around the carotid artery. […]

The target of the next series is fibronectin (Homo sapiens, UniProt P02751). As to conditions: cited from earlier work.
fibronectin, sequence (P02751 32-2477): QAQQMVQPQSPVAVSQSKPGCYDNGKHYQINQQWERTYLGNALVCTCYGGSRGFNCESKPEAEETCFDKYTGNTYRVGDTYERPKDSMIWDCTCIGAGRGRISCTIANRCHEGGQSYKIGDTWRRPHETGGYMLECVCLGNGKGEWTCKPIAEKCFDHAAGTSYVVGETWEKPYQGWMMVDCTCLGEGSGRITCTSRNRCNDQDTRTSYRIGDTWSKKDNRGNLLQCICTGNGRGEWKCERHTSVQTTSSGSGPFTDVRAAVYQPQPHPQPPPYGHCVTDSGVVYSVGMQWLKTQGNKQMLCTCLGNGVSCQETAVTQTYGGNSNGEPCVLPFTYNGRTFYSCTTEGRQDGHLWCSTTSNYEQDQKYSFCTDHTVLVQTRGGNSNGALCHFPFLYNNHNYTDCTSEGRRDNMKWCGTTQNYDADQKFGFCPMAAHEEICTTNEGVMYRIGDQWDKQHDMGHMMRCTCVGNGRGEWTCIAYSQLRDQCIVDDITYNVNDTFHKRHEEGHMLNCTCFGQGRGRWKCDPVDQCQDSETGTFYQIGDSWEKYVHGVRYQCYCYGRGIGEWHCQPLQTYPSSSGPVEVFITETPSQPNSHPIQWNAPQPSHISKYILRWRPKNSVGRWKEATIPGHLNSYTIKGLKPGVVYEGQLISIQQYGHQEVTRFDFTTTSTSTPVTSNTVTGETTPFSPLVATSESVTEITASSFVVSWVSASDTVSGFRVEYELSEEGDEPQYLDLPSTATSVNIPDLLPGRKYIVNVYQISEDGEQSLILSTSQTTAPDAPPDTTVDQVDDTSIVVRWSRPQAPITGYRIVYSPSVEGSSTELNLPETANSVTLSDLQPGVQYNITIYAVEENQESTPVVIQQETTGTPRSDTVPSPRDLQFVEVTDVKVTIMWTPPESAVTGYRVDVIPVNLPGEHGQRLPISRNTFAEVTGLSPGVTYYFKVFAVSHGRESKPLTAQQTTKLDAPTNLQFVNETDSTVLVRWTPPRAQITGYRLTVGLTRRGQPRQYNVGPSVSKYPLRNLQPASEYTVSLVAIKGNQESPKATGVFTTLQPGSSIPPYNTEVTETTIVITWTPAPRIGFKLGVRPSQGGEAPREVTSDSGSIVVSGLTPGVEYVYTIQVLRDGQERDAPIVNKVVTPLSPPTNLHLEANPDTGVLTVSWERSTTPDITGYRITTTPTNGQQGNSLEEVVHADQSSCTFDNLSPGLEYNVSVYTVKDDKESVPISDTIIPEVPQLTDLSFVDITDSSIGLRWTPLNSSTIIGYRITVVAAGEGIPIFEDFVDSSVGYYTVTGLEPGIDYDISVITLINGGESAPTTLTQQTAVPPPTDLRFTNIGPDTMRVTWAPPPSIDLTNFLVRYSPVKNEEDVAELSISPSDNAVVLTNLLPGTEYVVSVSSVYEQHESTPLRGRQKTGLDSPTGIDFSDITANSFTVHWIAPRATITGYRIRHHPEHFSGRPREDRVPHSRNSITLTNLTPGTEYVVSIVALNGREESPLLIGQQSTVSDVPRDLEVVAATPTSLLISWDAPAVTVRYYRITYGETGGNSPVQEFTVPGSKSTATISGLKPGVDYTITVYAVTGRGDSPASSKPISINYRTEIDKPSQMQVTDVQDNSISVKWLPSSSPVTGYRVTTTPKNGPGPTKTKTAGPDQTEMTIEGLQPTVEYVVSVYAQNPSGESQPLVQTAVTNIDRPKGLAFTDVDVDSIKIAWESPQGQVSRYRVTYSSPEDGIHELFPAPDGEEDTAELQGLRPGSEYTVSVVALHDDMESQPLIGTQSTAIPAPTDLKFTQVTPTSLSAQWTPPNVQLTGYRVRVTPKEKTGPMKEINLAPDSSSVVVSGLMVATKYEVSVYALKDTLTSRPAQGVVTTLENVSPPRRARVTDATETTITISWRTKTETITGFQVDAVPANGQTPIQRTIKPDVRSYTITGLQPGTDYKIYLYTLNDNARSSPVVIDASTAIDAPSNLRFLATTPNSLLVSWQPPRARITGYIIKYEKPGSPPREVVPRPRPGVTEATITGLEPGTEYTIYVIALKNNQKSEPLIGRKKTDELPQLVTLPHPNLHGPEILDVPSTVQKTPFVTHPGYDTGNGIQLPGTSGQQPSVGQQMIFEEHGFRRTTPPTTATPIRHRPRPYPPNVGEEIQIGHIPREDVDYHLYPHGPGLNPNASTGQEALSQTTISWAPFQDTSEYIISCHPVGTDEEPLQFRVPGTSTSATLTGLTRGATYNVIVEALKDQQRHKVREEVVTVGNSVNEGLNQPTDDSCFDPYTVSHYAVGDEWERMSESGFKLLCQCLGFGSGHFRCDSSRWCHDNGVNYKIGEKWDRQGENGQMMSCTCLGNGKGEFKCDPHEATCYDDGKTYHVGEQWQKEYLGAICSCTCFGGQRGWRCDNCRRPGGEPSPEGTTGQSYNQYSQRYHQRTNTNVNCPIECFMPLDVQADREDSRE
Another series deals with mice. The series can be described thus: Dimethylnitrosamine (DMN) induced liver fibrosis. In kind it is in vivo, mouse. The protocol:
Collagen content in the liver of mice was measured by quantitating hydroxyproline levels (FIG. 17A). Treatment groups were DMN treated mice that were post treated with pUR4 or control III-11C peptide, DMN without peptide, and saline treated control mice. Fibronectin content in the liver of mice was assessed by immunohistochemistry of liver sections using a fibronectin antibody (FIG. 17B). Inflammatory cell infiltration into the liver was assessed by quantitating the CD45 positive cells per unit area (FIG. 17C). Sequential model (FIGS. 17A, 17B); Simultaneous model (FIG. 17C). n=3 in each group.
Liver fibrosis was induced in mice by administration of dimethylnitrosamine (DMN) for 4 weeks as previously described (Yoshida et al., “SOCS1 is a Suppressor of Liver Fibrosis and Hepatitis-Induced Carcinogenesis,” J. Exp. Med. 199:1701-1707 (2004)). This is a well established model of liver fibrosis and some of the key pathological features that develop in DMN induced fibrosis are similar to those seen in humans with liver fibrosis (Wu et al., “Animal Models of Liver Fibrosis,” Scand. J. Gastroenterol. 31:1137-1143 (1996); Jenkins et al., “A Dimethylnitrosamine-Induced Model of Cirrhosis and Portal Hypertension in the Rat,” J. Hepatol. 1:489-499 (1985), which are hereby incorporated by reference in their entirety). pUR4 was either administered for the last 10 days of DMN treatment (simultaneous treatment regimen), or for 14 days following cessation of DMN treatment (sequential treatment regimen). The latter model was performed to determine whether the peptide is effective when administered after fibrosis is established.
Dimethylnitrosamine (DMN) will be used to induce liver injury and fibrosis in mice (10 mg/kg body weight, 3×/week for 4 weeks) as described in Example 16. The experimental groups will include: 1) DMN alone; 2) DMN+pUR4 peptide; and 3) DMN+control peptide. Non DMN-treated control animals will receive i.p. injections of 0.9% saline plus: 4) pUR4; or 5) the control peptide. Two treatment strategies will be used, as described in Example 16. In the simultaneous treatment strategy, peptides will be administered daily during the last 10 days of DMN treatment. This will allow assessment of pUR4 on preventing fibrosis development. In the sequential treatment strategy, DMN will be injected for 4 weeks. Peptides will then be administered daily for 14 days in the absence of DMN. This will allow assessment of pUR4 on preventing fibrosis progression.

Where [2] appears, read: animals treated in the absence of injury for up to 2 weeks.
[3] abbreviates: sequential treatment: 14 days following cessation of DMN, 20 mg/kg/d.

B1: pUR4: 49-mer peptide derived from the bacterial F1 adhesin, His tagged, SEQ ID NO:1; class I fibronectin polymerization inhibitor (peptide)
chain: MRGSHHHHHHGSKDQSPLAGESGETEYITEVYGNQQNPVDIDKKLPNETGFSGNMVETEDTKLN
modifications: His tag; Bacterial adhesin derived peptide pUR4
For the molecule B1, in series [1] (7 and 14 days after surgery, vs control animals), the “accumulation of collagen I and fibronectin in the media and adventitia” value was “dramatic reduction”. In series [1] (7 days after ligation), the “SMC dedifferentiation (SM α-actin and SM myosin heavy chain staining in the media)” value is listed as “prevented”; the “adhesion molecule expression (ICAM-1 and VCAM-1 levels in the vessel wall)” value is listed as “dramatic decrease”. In addition, in series [1] (7 days after surgery), the “decrease of leukocyte (CD45) infiltration into the intima, media, and adventitia” value came out at 80%; the increased fibronectin deposition result is given as “totally prevented”; the “prevention of increase in cell density in the media” value came out at 75%. For the same molecule, the “cell density in the media” value in series [1] (7 days after surgery, ligated 6.7×10^−3, sham 5.0×10^−3) is 5.3×10^−3 cells/mm^2. In series [1] (7 days post ligation), the “reduction in cell proliferation (PCNA) in the adventitia” value is 61% and the “reduction in cell proliferation (PCNA) in the intima-media” value came to 70%. Also, in series [1] (14 days after surgery), the “fibronectin and collagen levels vs control peptide-treated animals” value is “still decreased”. The binding to fibronectin result with fibronectin is listed as “binds”. In the series with mice (setting [2]), the adverse effects entry was “do not show any adverse effects” and the “decrease in the normal levels of ECM fibronectin or collagen I” value is “do not show”. The “inflammation in the liver” value with mice (sequential treatment model) was “trend towards reduced”. Moreover, in the series with mice (setting [3]), the “collagen I content in the liver (hydroxyproline)” value was “reduced” and the “fibronectin content in the liver” value is reported as “reduced”. In the series with mice (simultaneous treatment regimen), the “infiltration of immune cells (CD45) into the liver” value was “significantly reduced”.
